# Patent publication US20150150960A1, “PROTECTION AGAINST DENGUE VIRUS AND PREVENTION OF SEVERE DENGUE DISEASE” (priority 2010, published 2015)
# Tests used:
# [1] = biological target: NS4B2280-2289 / HLA B*0702 (DENV2 strain S221; human)
# [2] = biological target: E451-459 / HLA A*0101 (DENV2 strain S221; human)
# [3] = biological target: NS11090-1099 / HLA A*0101 (DENV2 strain S221; human)
# [4] = biological target: NS2A1192-1200 / HLA A*0101 (DENV2 strain S221; human)
# [5] = biological target: NS2A1251-1259 / HLA A*0101 (DENV2 strain S221; human)
# [6] = biological target: NS4B2399-2407 / HLA A*0101 (DENV2 strain S221; human)
# [7] = biological target: NS53375-3383 / HLA A*0101 (DENV2 strain S221; human)
# [8] = biological target: purified HLA B*0702 molecules (human); assay: inhibition of radiolabeled probe peptide binding to purified HLA
# [9] = biological target: E631-639 / HLA A*0201 (DENV2 strain S221; human)
# [10] = biological target: NS2B1383-1391 / HLA A*0201 (DENV2 strain S221; human)
# [11] = biological target: NS31465-1473 / HLA A*0201 (DENV2 strain S221; human)
# [12] = biological target: NS31681-1689 / HLA A*0201 (DENV2 strain S221; human)
# [13] = biological target: NS32013-2022 / HLA A*0201 (DENV2 strain S221; human)
# [14] = biological target: NS4A2140-2148 / HLA A*0201 (DENV2 strain S221; human)
# [15] = biological target: NS53058-3066 / HLA A*0201 (DENV2 strain S221; human)
# [16] = biological target: C53-67 / HLA DRB1*0101 (DENV2 strain S221; human)
# [17] = biological target: NS2A1199-1213 / HLA DRB1*0101 (DENV2 strain S221; human)
# [18] = biological target: NS2B1356-1370 / HLA DRB1*0101 (DENV2 strain S221; human)
# [19] = biological target: NS31742-1756 / HLA DRB1*0101 (DENV2 strain S221; human)
# [20] = biological target: NS52966-2980 / HLA DRB1*0101 (DENV2 strain S221; human)
# [21] = biological target: NS2A1212-1221 / HLA B*0702 (DENV2 strain S221; human)
# [22] = biological target: NS31682-1690 / HLA B*0702 (DENV2 strain S221; human)
# [23] = biological target: NS31700-1709 / HLA B*0702 (DENV2 strain S221; human)
# [24] = biological target: NS31753-1761 / HLA B*0702 (DENV2 strain S221; human)
# [25] = biological target: NS31808-1817 / HLA B*0702 (DENV2 strain S221; human)
# [26] = biological target: NS32070-2078 / HLA B*0702 (DENV2 strain S221; human)
# [27] = biological target: NS4B2280-2289 / HLA B*0702 (DENV2 strain S221; human); remark: listed apart in the source
# [28] = biological target: NS4B2296-2304 / HLA B*0702 (DENV2 strain S221; human)
# [29] = biological target: NS52646-2655 / HLA B*0702 (DENV2 strain S221; human)
# [30] = biological target: NS52885-2894 / HLA B*0702 (DENV2 strain S221; human)
# [31] = biological target: NS53077-3085 / HLA B*0702 (DENV2 strain S221; human)
# [32] = biological target: NS31509-1517 / HLA A*1101 (DENV2 strain S221; human)
# [33] = biological target: NS31608-1617 / HLA A*1101 (DENV2 strain S221; human)
# [34] = biological target: NS31863-1871 / HLA A*1101 (DENV2 strain S221; human)
# [35] = biological target: NS4A2074-2083 / HLA A*1101 (DENV2 strain S221; human)
# [36] = biological target: NS4B2315-2323 / HLA A*1101 (DENV2 strain S221; human)
# [37] = biological target: NS53079-3087 / HLA A*1101 (DENV2 strain S221; human)
# [38] = biological target: NS53283-3291 / HLA A*1101 (DENV2 strain S221; human)
# [39] = biological target: target splenocytes pulsed with NS2B108-122, NS3198-212 and NS3237-251 together (I-A^b-restricted)
# [40] = biological target: purified HLA A*0201 molecules (human); assay: inhibition of radiolabeled probe peptide binding to purified HLA
# [41] = biological target: NS2B1355-1363 / HLA A*0201 (DENV2 strain S221; human)
# [42] = biological target: NS2B1450-1459 / HLA A*0201 (DENV2 strain S221; human)
# [43] = biological target: NS31978-1987 / HLA B*0702 (DENV2 strain S221; human)
# [44] = biological target: NS4A2205-2213 / HLA A*0201 (DENV2 strain S221; human)
# [45] = biological target: NS52608-2616 / HLA A*1101 (DENV2 strain S221; human)
# [46] = biological target: NS53112-3121 / HLA A*1101 (DENV2 strain S221; human)
substance,measurement,setting,value
splenic CD8+ T cells of DENV2 (S221)-infected HLA B*0702 transgenic IFN-α/βR+/+ mice (cells without a defined receptor),IFNγ ELISPOT (SFC/10^6 CD8+ T cells),[1],50
splenic CD8+ T cells of DENV2 (S221)-infected HLA A*0101 transgenic IFN-α/βR-/- mice (cells without a defined receptor),T cell responses [SFC] mouse (IFNγ ELISPOT),[2],327 SFC
same,T cell responses [SFC] mouse (IFNγ ELISPOT),[3],228 SFC
same,T cell responses [SFC] mouse (IFNγ ELISPOT),[4],430 SFC
same,T cell responses [SFC] mouse (IFNγ ELISPOT),[5],465 SFC
same,T cell responses [SFC] mouse (IFNγ ELISPOT),[6],153 SFC
same,T cell responses [SFC] mouse (IFNγ ELISPOT),[7],495 SFC
NS4B2296-2305 (peptide),IC50,[8],> 1000 nM
splenic CD8+ T cells of DENV2 (S221)-infected HLA A*0201 transgenic IFN-α/βR-/- mice (cells without a defined receptor),T cell responses [SFC] mouse (IFNγ ELISPOT),[9],265 SFC
same,T cell responses [SFC] mouse (IFNγ ELISPOT),[10],519 SFC
same,T cell responses [SFC] mouse (IFNγ ELISPOT),[11],207 SFC
same,T cell responses [SFC] mouse (IFNγ ELISPOT),[12],299 SFC
same,T cell responses [SFC] mouse (IFNγ ELISPOT),[13],417 SFC
same,T cell responses [SFC] mouse (IFNγ ELISPOT),[14],384 SFC
same,T cell responses [SFC] mouse (IFNγ ELISPOT),[15],353 SFC
splenic CD4+ T cells of DENV2 (S221)-infected HLA DRB1*0101 transgenic IFN-α/βR-/- mice (cells without a defined receptor),T cell responses [SFC] mouse (IFNγ ELISPOT),[16],77 SFC
same,T cell responses [SFC] mouse (IFNγ ELISPOT),[17],764 SFC
same,T cell responses [SFC] mouse (IFNγ ELISPOT),[18],65 SFC
same,T cell responses [SFC] mouse (IFNγ ELISPOT),[19],448 SFC
same,T cell responses [SFC] mouse (IFNγ ELISPOT),[20],851 SFC
splenic CD8+ T cells of DENV2 (S221)-infected HLA B*0702 transgenic IFN-α/βR-/- mice (cells without a defined receptor),T cell responses [SFC] mouse (IFNγ ELISPOT),[21],400 SFC
same,T cell responses [SFC] mouse (IFNγ ELISPOT),[22],1290 SFC
same,T cell responses [SFC] mouse (IFNγ ELISPOT),[23],1060 SFC
same,T cell responses [SFC] mouse (IFNγ ELISPOT),[24],509 SFC
same,T cell responses [SFC] mouse (IFNγ ELISPOT),[25],364 SFC
same,T cell responses [SFC] mouse (IFNγ ELISPOT),[26],1850 SFC
same,T cell responses [SFC] mouse (IFNγ ELISPOT),[27],1540 SFC
same,T cell responses [SFC] mouse (IFNγ ELISPOT),[28],1010 SFC
same,T cell responses [SFC] mouse (IFNγ ELISPOT),[29],994 SFC
same,T cell responses [SFC] mouse (IFNγ ELISPOT),[30],811 SFC
same,T cell responses [SFC] mouse (IFNγ ELISPOT),[31],487 SFC
splenic CD8+ T cells of DENV2 (S221)-infected HLA A*1101 transgenic IFN-α/βR-/- mice (cells without a defined receptor),T cell responses [SFC] mouse (IFNγ ELISPOT),[32],436 SFC
same,T cell responses [SFC] mouse (IFNγ ELISPOT),[33],1000 SFC
same,T cell responses [SFC] mouse (IFNγ ELISPOT),[34],208 SFC
same,T cell responses [SFC] mouse (IFNγ ELISPOT),[35],148 SFC
same,T cell responses [SFC] mouse (IFNγ ELISPOT),[36],712 SFC
same,T cell responses [SFC] mouse (IFNγ ELISPOT),[37],105 SFC
same,T cell responses [SFC] mouse (IFNγ ELISPOT),[38],358 SFC
CD4+ T cells of DENV2-infected IFN-α/βR-/- mice (C57BL/6 background) (cells without a defined receptor),"in vivo cytotoxicity assay, percentage killing",[39],30%
NS31681-1689 (peptide),IC50,[40],18 nM
PBMC from HLA matched DENV seropositive human donors (cells without a defined receptor),T cell responses [SFC] human (IFNγ ELISPOT),[16],314 SFC
same,T cell responses [SFC] human (IFNγ ELISPOT),[2],67 SFC
same,T cell responses [SFC] human (IFNγ ELISPOT),[9],393 SFC
same,T cell responses [SFC] human (IFNγ ELISPOT),[3],104 SFC
same,T cell responses [SFC] human (IFNγ ELISPOT),[17],249 SFC
same,T cell responses [SFC] human (IFNγ ELISPOT),[21],335 SFC
same,T cell responses [SFC] human (IFNγ ELISPOT),[5],143 SFC
same,T cell responses [SFC] human (IFNγ ELISPOT),[41],417 SFC
same,T cell responses [SFC] human (IFNγ ELISPOT),[18],279 SFC
same,T cell responses [SFC] human (IFNγ ELISPOT),[10],434 SFC
same,T cell responses [SFC] human (IFNγ ELISPOT),[42],588 SFC
same,T cell responses [SFC] human (IFNγ ELISPOT),[11],495 SFC
same,T cell responses [SFC] human (IFNγ ELISPOT),[32],0 SFC
same,T cell responses [SFC] human (IFNγ ELISPOT),[33],880 SFC
same,T cell responses [SFC] human (IFNγ ELISPOT),[12],401 SFC
same,T cell responses [SFC] human (IFNγ ELISPOT),[22],207 SFC
same,T cell responses [SFC] human (IFNγ ELISPOT),[23],1430 SFC
same,T cell responses [SFC] human (IFNγ ELISPOT),[24],410 SFC
same,T cell responses [SFC] human (IFNγ ELISPOT),[25],232 SFC
same,T cell responses [SFC] human (IFNγ ELISPOT),[34],0 SFC
same,T cell responses [SFC] human (IFNγ ELISPOT),[43],1820 SFC
same,T cell responses [SFC] human (IFNγ ELISPOT),[13],312 SFC
same,T cell responses [SFC] human (IFNγ ELISPOT),[35],3090 SFC
same,T cell responses [SFC] human (IFNγ ELISPOT),[14],297 SFC
same,T cell responses [SFC] human (IFNγ ELISPOT),[44],301 SFC
same,T cell responses [SFC] human (IFNγ ELISPOT),[27],0 SFC
same,T cell responses [SFC] human (IFNγ ELISPOT),[28],460 SFC
same,T cell responses [SFC] human (IFNγ ELISPOT),[36],0 SFC
same,T cell responses [SFC] human (IFNγ ELISPOT),[6],92 SFC
same,T cell responses [SFC] human (IFNγ ELISPOT),[45],0 SFC
same,T cell responses [SFC] human (IFNγ ELISPOT),[29],0 SFC
same,T cell responses [SFC] human (IFNγ ELISPOT),[30],1340 SFC
same,T cell responses [SFC] human (IFNγ ELISPOT),[20],729 SFC
same,T cell responses [SFC] human (IFNγ ELISPOT),[15],597 SFC
same,T cell responses [SFC] human (IFNγ ELISPOT),[31],390 SFC
same,T cell responses [SFC] human (IFNγ ELISPOT),[37],0 SFC
same,T cell responses [SFC] human (IFNγ ELISPOT),[46],0 SFC
same,T cell responses [SFC] human (IFNγ ELISPOT),[38],800 SFC
same,T cell responses [SFC] human (IFNγ ELISPOT),[7],143 SFC
